The record followed here is patent publication US20250011397A1 (HOSPITAL FOR SICK CHILDREN, published 2025).

Test [1] deals with T1, SARS-CoV-2 receptor binding domain (RBD), wild type, His-tagged (BEI NR52309) (SARS-CoV-2, UniProt P0DTC2 319-541).
T1 construct: also called WT RBD

In test [2] the target is T1, SARS-CoV-2 receptor binding domain …. This is another data set of the same source.
For test [3] the target is unchanged. This is another data set of the same source.
For test [4] the target is unchanged. The source holds these as a separate data set.
For test [5] the target is unchanged. As to the kind of experiment: RBD KD column; method and antibody format not stated.
Test [6] has the same target. Described as above. The source holds these as a separate data set.
Test [7] concerns the target T2, SARS-CoV-2 Spike, prefusion S ectodomain (BEI NR52394), His-tagged (SARS-CoV-2, UniProt P0DTC2 14-1213).
T2 construct: extracellular domain; also called S protein; S glycoprotein
As to the kind of experiment: BLI, His-tagged Spike on Ni-NTA biosensors, 1:1 fit. On the technique in general: Biolayer interferometry detects binding as a change in optical thickness at a sensor tip.

Where a chain is given by its changes, count along the chain named. Read-outs that look alike come from different tables or passages of the source.

B1: mAb 52 (antibody, V domains shown)
VH: QVQLVQSGAEVKKPGSSVKVSCKASGYTFTSYGISWVRQAPGQGLEWMGGIIPMFGTTNYAQKFQGRVTITADKSTSTAYMELSSLRSEDTAVYYCARDRGDTIDYWGQGTLVTVSS
VL: DIQMTQSPSSLSASVGDRVTITCRASQGISNNLNWYQQKPGKAPKLLIYAASSLESGVPSRFSGSGSGTDFTLTISSLQPEDFATYYCQQGNGFPLTFGPGTKVDIKR
notes: also called IgG 52; antibody 52
For the molecule B1, the RBD binding was found to be 0.5 in test [1], 0.4 in test [2], 1.3 in test [3] and 0.8 in test [4].

B2: mAb 254 (antibody, V domains shown)
VH: EVQLLESGGGLVQPGGSLRLSCAASGFTFSSSAMHWVRQAPGKGLEWVSAIGTGGDTYYADSVKGRFTISRDNSKNTLYLQMNSLRAEDTAVYYCAREGDGYNFYFDYWGQGTLVTVSS
VL: DIQMTQSPSSLSASVGDRVTITCRASQGISSYLAWYQQKPGKAPKLLIYDASSLQIGVPSRFSGSGSGTDFTLTISSLQPEDFATYYCLQSYSTPPWTFGQGTKVEIKR
notes: also called IgG 254
One may read the Kd as a measure of binding affinity in units of concentration. A lower Kd goes with tighter binding. In the case of B2, the Kd in test [5] and in test [6] was 127 nM throughout.

B3: mAb 160 (antibody, V domains shown)
VH: QVQLVQSGAEVKKPGASVKVSCKASGYTFTGHDMHWVRQAPGQGLEWMGIINPSGGSTSYAQKFQGRVTMTRDTSTSTVYMELSSLRSEDTAVYYCARANSLRYYYGMDVWGQGTMVTVSS
VL: DIQMTQSPSSLSASVGDRVTITCRASQSVSSWLAWYQQKPGKAPKLLIYAASSLQSGVPSRFSGSGSGTDFTLTISSLQPEDFATYYCQQGYTTPYTFGQGTKLEIKR
notes: also called IgG 160
Take B3: the Kd in test [5] and in test [6] was 7.7 nM each time.

B4: mAb 128 (antibody, V domains shown)
VH: QVQLVQSGAEVKKPGASVKVSCKASGYTFTHYYMHWVRQAPGQGLEWMGIINPSSSSASYSQKFQGRVTMTRDTSTSTVYMELSSLRSEDTAVYYCARDGRYGSGSYPFDYWGQGTLVTVSS
VL: DIQMTQSPSSLSASVGDRVTITCRASQNISRYLNWYQQKPGKAPKLLIYDASNLETGVPSRFSGSGSGTDFTLTISSLQPEDFATYYCQQANGFPPTFGQGTKLEIKR
As to B4, the Kd in test [5] and in test [6] was 57 nM in each case.

B5: 4A8 IgG (antibody, V domains shown)
VH: EVQLVESGAEVKKPGASVKVSCKVSGYTLTELSMHWVRQAPGKGLEWMGGFDPEDGETMYAQKFQGRVTMTEDTSTDTAYMELSSLRSEDTAVYYCATSTAVAGTPDLFDYYYGMDVWGQGTTVTVSS
VL: EIVMTQSPLSSPVTLGQPASISCRSSQSLVHSDGNTYLSWLQQRPGQPPRLLIYKISNRFSGVPDRFSGSGAGTDFTLKISRVEAEDVGVYYCTQATQFPYTFGQGTKVDIK
notes: also called IgG 4A8
By koff is commonly meant the first-order rate constant of dissociation. Read a high koff as a short-lived complex. Broadly, the kon is a measure of how fast the partners come together. Low values mean slow association, high ones fast association. In test [7], B5 yielded a Kd of 1.42 nM, a koff of 0.000191 s⁻¹ and a kon of 133000 M⁻¹ s⁻¹.

B6: mAb 236 (antibody, V domains shown)
VH: QVQLVQSGAEVKKPGASVKVSCKASGGTFTSYGINWVRQAPGQGLEWMGWMNPNSGNTGYAQKFQGRVTMTRDTSTSTVYMELSSLRSEDTAVYYCASRGIQLLPRGMDVWGQGTTVTVSS
VL: not shown
notes: also called IgG 236
As for B6, the Kd in test [5] and in test [6] was 145 nM each time. Further, the RBD binding in test [1] came out at 1.2; in test [2] it was 1; in test [3], 0.1; in test [4] it was 0.2.

B7: mAb 46 (antibody, V domains shown)
VH: EVQLLESGGGLVQPGRSLRLSCAASGFTFSSYAMSWVRQAPGKGLEWVSTIYSGGSTYYADSVKGRFTISRDNSKNTLYLQMNSLRAEDTAVYYCARGDSRDAFDIWGQGTMVTVSS
VL: DIQMTQSPSSLSASVGDRVTITCRASQSISSWLAWYQQKPGKAPKLLIYDASNLETGVPSRFSGSGSGTDFTLTISSLQPEDFATYYCQQSYSTPFTFGPGTKVDIKR
notes: also called IgG 46; antibody 46
On to B7, for which the Kd in test [5] and in test [6] was 83 nM in each case. Also, the RBD binding in test [1] stood at 0.2; in test [2], 0.2; in test [3], 1.3; in test [4], 1.2.

B8: mAb 64 (antibody, V domains shown)
VH: EVQLLESGGGLVQPGGSLRLSCAASGFPFSQHGMHWVRQAPGKGLEWVSAIDRSGSYIYYADSVKGRFTISRDNSKNTLYLQMNSLRAEDTAVYYCARDTYGGKVTYFDYWGQGTLVTVSS
VL: B7 VL with S28G, W32H, S91T, F96W, P100Q, D105E
notes: also called IgG 64
As for B8, the Kd in test [5] and in test [6] was 97 nM each time.

B9: mAb 108 (antibody, V domains shown)
VH: QVQLVQSGAEVKKPGASVKVSCKASGYIFSRYAIHWVRQAPGQGLEWMGWMNPISGNTDYAPNFQGRVTMTRDTSTSTVYMELSSLRSEDTAVYYCAKDGSQLAYLVEYFQHWGQGTLVTVSS
VL: B7 VL with S28V, S30T, S31N, W32N, N53T, S93T, T94F, F96Y, P100Q, D105E
On to B9, for which the Kd in test [5] and in test [6] was 72 nM throughout.

B10: mAb 349 (antibody, V domains shown)
VH: EVQLLESGGGLVQPGGSLRLSCAASGFTFSNYGMHWVRQAPGKGLEWVSGISSAGSITNYADSVKGRFTISRDNSKNTLYLQMNSLRAEDTAVYYCAGNHAGTTVTSEYFQHWGQGTLVTVSS
VL: B7 VL with A51T, S93T, F96W, P100Q, K103R, V104L, D105E
notes: also called IgG 349
In the case of B10, the Kd in test [5] and in test [6] was 74 nM each time.

B11: mAb 56 (antibody, V domains shown)
VH: QVQLVQSGAEVKKPGASVKVSCKASGYTFTSYGISWVRQAPGQGLEWMGWISAYNGNTNYAQKLQGRVTMTRDTSTSTVYMELSSLRSEDTAVYYCARDIGPIDYWGQGTLVTVSS
VL: B4 VL with N28G, R31S, N34A, E55Q, T56S, G93S, P96S, L104V
notes: also called IgG 56
As to B11, the Kd in test [5] and in test [6] was 23 nM in each case.

B12: mAb 158 (antibody, V domains shown)
VH: QVQLVQSGAEVKKPGASVKVSCKASGYTFTGYYMHWVRQAPGQGLEWMGWINPLNGGTNFAPKFQGRVTMTRDTSTSTVYMELSSLRSEDTAVYYCARDPGGSYSNDAFDIWGQGTLVTVSS
VL: B4 VL with N28S, T56S, G93S, P96L, Q100G, L104V, E105D
notes: also called IgG 158
For the molecule B12, the Kd in test [5] and in test [6] was 172 nM each time.

B13: mAb 82 (antibody, V domains shown)
VH: QVQLVQSGAEVKKPGASVKVSCKASGGSFSTSAFYWVRQAPGQGLEWMGWINPYTGGTNYAQKFQGRVTMTRDTSTSTVYMELSSLRSEDTAVYYCARSRALYGSGSYFDYWGQGTLVTVSS
VL: B4 VL with N28V, R31N, N34A, A91S, N92F, G93S, F94P, K103R
notes: also called IgG 82
Turning to B13, the Kd in test [5] and in test [6] was 206 nM throughout. The RBD binding is 1.4 in test [1], 0.6 in test [2], 0.6 in test [3] and 0.4 in test [4].

B14: mAb 324 (antibody, V domains shown)
VH: QVQLVQSGAEVKKPGASVKVSCKASGGTFNNYGISWVRQAPGQGLEWMGWMNPNSGNTGYAQKFQGRVTMTRDTSTSTVYMELSSLRSEDTAVYYCARVGDYGDYIVSPFDLWGRGTLVTVSS
VL: B7 VL with S30T, S31T, W32Y, A34N, F96P, P100Q, D105E
notes: also called IgG 324
As to B14, the Kd in test [5] and in test [6] was 111 nM in each case. In addition, the RBD binding is 1.2 in test [1], 1 in test [2], 0.1 in test [3] and 0.2 in test [4].

B15: mAb 178 (antibody, V domains shown)
VH: QVQLVQSGAEVKKPGASVKVSCKASGYTFTDYHMHWVRQAPGQGLEWMGWINPNSGGTNYAQKFQGRVTMTRDTSTSTVYMELSSLRSEDTAVYYCARDISSWYEITKFDPWGQGTLVTVSS
VL: EIVMTQSPATLSVSPGERATLSCKASQSVSGTYLAWYQQKPGQAPRLLIYGASTRATGIPARFSGSGSGTEFTLTISSLQSEDFAVYYCLQTHSYPPTFGQGTKVEIKR
notes: also called IgG 178
Turning to B15, the Kd in test [5] and in test [6] was 72 nM each time.

B16: mAb 120 (antibody, V domains shown)
VH: QVQLVQSGAEVKKPGASVKVSCKASGYTFTSYDINWVRQAPGQGLEWMGMIDPSGGSTSYAQKFQGRVTMTRDTSTSTVYMELSSLRSEDTAVYYCAKDFGGGTRYDYWYFDLWGRGTLVTVSS
VL: EIVMTQSPATLSVSPGERATLSCRASQSVSSRYLAWYQQKPGQAPRLLIYGASTRATGIPARFSGSGSGTEFTLTISSLQSEDFAVYYCQQYYTTPRTFGQGTRLEIKR
notes: also called IgG 120
On to B16, for which the Kd in test [5] and in test [6] was 24 nM in each case.
